Source: paper PMC3883112 (Cell reports, 2013)

Target: T1, GST-Pol32 (full length Pol32) (yeast (S. cerevisiae), UniProt P47110 1-350)
T1 sequence (looked up): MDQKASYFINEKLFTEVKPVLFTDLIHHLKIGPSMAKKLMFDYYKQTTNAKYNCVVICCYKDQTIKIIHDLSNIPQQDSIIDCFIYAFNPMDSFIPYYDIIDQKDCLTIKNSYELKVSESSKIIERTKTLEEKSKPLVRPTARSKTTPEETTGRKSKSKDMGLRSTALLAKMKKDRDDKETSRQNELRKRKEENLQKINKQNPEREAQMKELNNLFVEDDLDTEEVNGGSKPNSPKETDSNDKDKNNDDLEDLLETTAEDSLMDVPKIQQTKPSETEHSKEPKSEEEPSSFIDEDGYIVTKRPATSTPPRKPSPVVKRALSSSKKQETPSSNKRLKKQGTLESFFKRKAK
Assay: pull-down

B1: Rev7 used in the GST pull-down (natural protein, yeast (S. cerevisiae), UniProt P38927 1-245, looked up)
chain: MNRWVEKWLRVYLKCYINLILFYRNVYPPQSFDYTTYQSFNLPQFVPINRHPALIDYIEELILDVLSKLTHVYRFSICIINKKNDLCIEKYVLDFSELQHVDKDDQIITETEVFDEFRSSLNSLIMHLEKLPKVNDDTITFEAVINAIELELGHKLDRNRRVDSLEEKAEIERDSNWVKCQEDENLPDNNGFQPPKIKLTSLVGSDVGPLIIHQFSEKLISGDDKILNGVYSQYEEGESIFGSLF
binding result: binds
